{"source": "paper PMC8717551", "about": "(The Journal of Biological Chemistry, 2021)", "binders": {"B1": {"name": "promoter mutant2 (flanking mutated) (dsDNA)", "DNA 1": "TTGTTGTACAAAAGTTTGTACAATAT", "DNA 2": "ATATTGTACAAACTTTTGTACAACAA"}, "B2": {"name": "Sa2YefM antitoxin (natural protein)", "chain": "MIITSPTEARKDFYQLLKNVNNNHEPIYISGNNAENNAVIIGLEDWKSIQETIYLESTGTMDKVREREKDNSGTTNIDDIDWDNL"}, "B3": {"name": "promoter mutant1 (core GTAC mutated) (dsDNA)", "DNA 1": "TTGACTGCATCAAGTGCTGCAGCTAT", "DNA 2": "ATAGCTGCAGCACTTGATGCAGTCAA"}}, "key": {"[1]": {"target": "T1, Sa2YefM in heterohexamer;Sa2YoeB in heterohexamer (Staphylococcus aureus …, UniProt Q2FVF7;Q2FVF8 1-85;1-88, |)", "T1 sequence 1": "B2 chain", "T1 sequence 2": "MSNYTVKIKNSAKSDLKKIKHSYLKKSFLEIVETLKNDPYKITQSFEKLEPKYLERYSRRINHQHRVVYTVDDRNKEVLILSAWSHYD", "assay": "ITC"}, "[2]": {"target": "the molecule itself", "assay": "crystal structure"}}}
{"binder": "B1", "values": [{"measurement": "binding result", "setting": "[1]", "result": "no binding"}]}
{"binder": "B2", "values": [{"measurement": "stoichiometry N", "setting": "[2]", "result": 2}]}
{"binder": "B3", "values": [{"measurement": "binding result", "setting": "[1]", "result": "no binding"}]}
